Experiments:
Assay type in all cases: cell-based, human
[1] = tested on: p42/p44 MAP-Kinase; assay: p42/p44 MAP-Kinase phosphorylation ELISA; conditions: 10 μg/ml antibody, 400 ng/ml Gas6; CaSki cervical cancer cells
Protocol: Next, ELISA experiments were performed in order to investigate whether the rat anti-AXL antibodies of the invention are able to block ligand Gas6-mediated activation of p42/p44 MAP-Kinase. Gas6-mediated p42/p44 MAP-Kinase activation was detected by increased protein (Thr202/Tyr204) phosphorylation. In brief, on the first day, 2×10^4 cells per well were seeded in flat-bottom 96 well plates. The next day, normal growth medium was replaced by serum-free medium to starve cells for 36 h. […] Medium was flicked out and cells were fixed with 4% formaldehyde in PBS (pH 7.5) for 30 min at room temperature. Formaldehyde solution was removed and cells were washed twice with wash buffer (PBS, 0.1% Tween 20). Cells were quenched with 1% H2O2, 0.1% NaN3 in wash buffer and incubated for 20 min at room temperature. Afterwards, the quenching solution was removed, and cells were washed twice with wash buffer and blocked with PBS, 0.5% BSA for 4 h at 4° C. Anti-phospho-p42/p44 MAP Kinase (Thr202/Tyr204) primary antibody (polyclonal rabbit; Cell Signaling #9101) diluted 1:500 in PBS, 0.5% BSA, 5 mM EDTA was added over night at 4° C. On day 4, the antibody solution was removed and the plate was washed 3× with wash buffer. […] Tetramethylbenzidine (TMB, Calbiochem) was added and monitored at 620 nm.

[2] = tested on: HUVEC spheroids; assay: Spheroid-based cellular angiogenesis assay; conditions: 25 ng/ml VEGF-A, 24 h
Protocol: AXL is a key regulator of multiple angiogenic behaviors including endothelial cell migration, proliferation, and tube formation in vitro (Holland et al., Cancer Res: 65, 9294-9303, 2005). […] The experiments were pursued in modification of the originally published protocol (Korff and Augustin: J Cell Sci 112: 3249-58, 1999). In brief, spheroids were prepared as described (Korff and Augustin: J Cell Biol 143: 1341-52, 1998) by pipetting 500 human umbilical vein endothelial cells (HUVEC) in a hanging drop on plastic dishes to allow over night spheroid aggregation. 50 HUVEC spheroids were then seeded in 0.9 ml of a collagen solution (2 mg/ml) and pipetted into individual wells of a 24 well plate to allow polymerization. […] Plates were incubated at 37° C. for 24 hours and fixed by adding 4% paraformaldehyde. Sprouting intensity of HUVEC spheroids was quantified by an image analysis system that determines the cumulative sprout length per spheroid using an inverted microscope and the digital imaging software Analysis 3.2 (Soft imaging system, Munster, Germany). The mean of the cumulative sprout length of 10 randomly selected spheroids was analyzed as an individual data point.

[3] = tested on: p42/p44 MAP-Kinase; assay: p42/p44 MAP-Kinase phosphorylation ELISA, rat versus chimeric antibody; conditions: 50 ng/ml to 10 μg/ml antibody, 400 ng/ml Gas6; CaSki
Protocol: To additionally verify whether the rat anti-Axl antibodies of the invention and the corresponding chimeric anti-Axl antibodies of the invention were also able to inhibit Gash-induced activation of p42/p44 MAP-Kinase in CaSki cervical cancer cells to similar extent, ELISA experiments were performed. Here, Gas6-induced p42/p44 MAP-Kinase activation was detected by increased protein (Thr202/Tyr204) phosphorylation. In brief, on the first day, 2×10^4 cells per well were seeded in flat-bottom 96 well plates. The next day, normal growth medium was replaced by serum-free medium to starve cells for 24 h. Thereafter, cells were pre-incubated with 50 ng/ml, 100 ng/ml, 300 ng/ml, 750 ng/ml, 1 μg/ml, and 10 μg/ml of rat anti-Axl antibody 11B7 or chimeric anti-Axl antibody ch11B7 for 1 h at 37° C. and then treated with or without 400 ng/ml Gas6 (R&D Systems) for 10 min at 37° C. Medium was flicked out and cells were fixed with 4% formaldehyde in PBS (pH 7.5) for 30 min at room temperature. Formaldehyde solution was removed and cells were washed twice with wash buffer (PBS, 0.1% Tween 20). Cells were quenched with 1% H2O2, 0.1% NaN3 in wash buffer and incubated for 20 min at room temperature. […] Tetramethylbenzidine (TMB, Calbiochem) was added and monitored at 620 nm.

B1: 11B7: antagonistic rat anti-AXL monoclonal antibody, rat IgG1 (antibody, V domains shown)
VL: DIQMTQAPSSLPASLGDRVTITCRASQDIGNYLRWFQQKPGKSPRLMISGATNLAAGVPSRFSGSRSGSDYSLTISSLESEDMADYYCLQSKESPWTFGGGTKLELK
VH: EVQLQESGPGLVKPSQSLSLTCSVTGYSITSNYWGWIRKFPGDKMEWMGYITYSGSTSYNPSLKSRISITRDTSKNQFFLQLNSVTSEDTATYYCAITTFYYWGQGVMVTVSS
With B1 the “ligand-mediated p42/p44 MAP-Kinase activation (phosphorylation)” value [1] was “able to reduce ligand-mediated p42/p44 MAP-Kinase activation”, the “HUVEC sprouting at the highest antibody concentration” value [2] was “reduced HUVEC sprouting to basal levels” and the “Gas6-induced p42/p44 MAP-Kinase activation, concentration-dependent” value [3] was “able to block Gas6-induced activation of p42/p44 MAP-Kinase in CaSki cervical cancer cells to similar extent”.

Reference: patent US8933202B2, “AXL antibodies” (U3 Pharma GmbH, priority 2007, dated 2015)
